The results in this text go back to publication PMC6735865 (Nucleic Acids Research, 2019).

For the assay, the target named is human METTL5, C-terminally His6-tagged (human, UniProt Q9NRN9). The assay is described as follows: pull-down.
Sequence of human METTL5, C-terminally His6-tagged (Q9NRN9 whole entry): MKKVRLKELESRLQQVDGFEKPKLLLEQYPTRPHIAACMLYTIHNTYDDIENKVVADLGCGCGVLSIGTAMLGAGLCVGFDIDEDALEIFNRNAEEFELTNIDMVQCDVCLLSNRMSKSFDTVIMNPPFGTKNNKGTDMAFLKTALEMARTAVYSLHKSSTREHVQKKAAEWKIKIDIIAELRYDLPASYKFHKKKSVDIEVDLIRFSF

B1: human TRMT112, untagged (natural protein)
chain: MKLLTHNLLSSHVRGVGSRGFPLRLQATEVRICPVEFNPNFVARMIPKVEWSAFLEAADNLRLIQVPKGPVEGYEENEEFLRTMHHLLLEVEVIEGTLQCPESGRMFPISRGIPNMLLSEEETES
B1: the binding result was “binds”.
